The results in this text go back to article PMC8377056 (2021).

The target of the assay is Fc(A680)-VH4127 conjugate (human, UniProt P01857 = IgG part, Alexa Fluor 680 (degree of labelling 1.7); H-PEG6-VH4127-NH2 joined enzymatically by microbial transglutaminase to the C-terminus of the Myc-tagged Fc | non-natural amino acid residues (not given); …). In words: SPR.

B1: His-tagged recombinant mouse LDLR (receptor)
chain: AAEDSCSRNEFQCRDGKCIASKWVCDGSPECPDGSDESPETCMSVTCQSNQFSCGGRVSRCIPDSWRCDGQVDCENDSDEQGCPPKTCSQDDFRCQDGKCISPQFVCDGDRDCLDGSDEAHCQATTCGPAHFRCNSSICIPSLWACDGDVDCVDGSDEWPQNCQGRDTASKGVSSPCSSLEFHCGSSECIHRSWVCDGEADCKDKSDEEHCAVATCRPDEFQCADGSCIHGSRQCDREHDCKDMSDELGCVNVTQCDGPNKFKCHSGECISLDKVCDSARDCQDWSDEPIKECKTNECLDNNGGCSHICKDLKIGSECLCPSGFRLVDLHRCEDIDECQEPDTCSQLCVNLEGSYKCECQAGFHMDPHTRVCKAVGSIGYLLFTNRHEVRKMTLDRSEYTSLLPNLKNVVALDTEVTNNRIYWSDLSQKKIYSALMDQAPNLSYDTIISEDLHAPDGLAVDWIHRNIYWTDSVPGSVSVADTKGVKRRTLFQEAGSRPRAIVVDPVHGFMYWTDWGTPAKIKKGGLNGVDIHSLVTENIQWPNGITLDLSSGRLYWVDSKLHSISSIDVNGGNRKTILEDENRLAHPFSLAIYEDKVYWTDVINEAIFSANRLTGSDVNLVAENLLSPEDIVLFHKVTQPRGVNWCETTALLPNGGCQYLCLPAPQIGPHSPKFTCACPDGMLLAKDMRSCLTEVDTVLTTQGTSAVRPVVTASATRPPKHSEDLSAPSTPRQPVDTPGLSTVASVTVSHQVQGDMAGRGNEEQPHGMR
Broadly, the koff is the first-order rate constant of dissociation. Molecule B1 gave a dissociation rate constant (koff) of 0.000236 s⁻¹.
